Test results published in publication PMC4547098 (eLife, 2015).

Legend:
[1] = molecular target: AVR-PikE with non-cleavable C-terminal 6xHis tag (pOPINE) (Magnaporthe oryzae, UniProt C4B8B8 22-113); experiment: SPR; details: both partners purified
[2] = molecular target: AVR-PikD with non-cleavable C-terminal 6xHis tag (pOPINE) (Magnaporthe oryzae, UniProt C4B8B8 22-113); experiment: SPR; Biacore T200, 25°C, single-cycle kinetics; […]; 50 mM HEPES pH 7.5, 150 mM NaCl, 0.1% Tween 20; details: both partners purified

B1: Pikp-HMA domain (HMA integrated domain of the rice NLR Pikp-1) (domain or fragment)
chain: GLKQKIVIKVAMEGNNCRSKAMALVASTGGVDSVALVGDLRDKIEVVGYGIDPIKLISALRKKVGDAELLQVS
notes: also called Pikp1-HMA; Pikp-1 HMA; not shown: 6xHis+SUMO, N-terminal, cleaved
Kd [1]: 0.367 ± 0.041 µM
Kd [2]: 0.029 ± 0.0035 µM
